Data on 7 molecules can be found in US20240109974A1 (SHANDONG SIMCERE BIOPHARMACEUTICAL, published 2024).

Residue numbers refer to the chain shown, from its start.

In experiment [1] the target is T1, human TNFR2 (Novoprotein, Cat #C830) (human, UniProt P20333 23-257, limits assumed).
T1 construct: construct not described; also called human TNFR2 protein
T1 sequence (looked up): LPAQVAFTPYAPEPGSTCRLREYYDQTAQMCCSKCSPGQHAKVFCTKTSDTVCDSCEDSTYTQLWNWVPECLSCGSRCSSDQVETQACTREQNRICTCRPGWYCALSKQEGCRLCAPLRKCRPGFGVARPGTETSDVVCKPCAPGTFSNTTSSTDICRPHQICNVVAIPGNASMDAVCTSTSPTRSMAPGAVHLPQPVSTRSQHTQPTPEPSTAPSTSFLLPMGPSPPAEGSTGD
The experiment can be described thus: competition ELISA, human TNFR2 coated, competitor human TNFα-Biotin. The procedure: (§1) 1 μg/ml human TNFR2 (Novoprotein, Cat #C830) was pre-coated with 100 μl/well […] in an ELISA plate. All the test TNFR2 antibodies were subjected to 2.5-fold gradient dilution from the highest concentration of 30 μg/ml; the diluted antibodies were mixed with 15 ng/ml human TNFα-Biotin (Acro Biosystem, Cat #TNA-H82E3) in equal volume, respectively; the resulting mixture was added to the ELISA plate at 100 μl/well, and incubated with shaking at room temperature for 2.0 hours. The plate was washed, and then a Streptavidin-HRP working solution (diluted at 1:10000) was added at 100 μl/well, and the mixture was incubated with shaking at room temperature for 40 minutes. The plate was washed again, and then the substrate TMB of HRP was added to develop colour. A stop solution was added to stop the reaction, and then a microplate reader (MD 13) was used to read the absorbance value. The inhibitory curve of an antibody was drawn with antibody concentration as the abscissa and corresponding OD value as the ordinate, and fitted with four parameters (GraphPad Prism9) to calculate the IC50 value. The smaller the IC50 value, the stronger the ability of an antibody to inhibit the binding of human TNFα to human TNFR2. The blocking effect of a humanized antibody was normalized to its corresponding human-murine chimeric antibody WT. The higher the percentage value, the better the inhibitory effect of the humanized antibody.

For experiment [2], the target named is T2, Human TNFR2-His (Sino 10417-H08H) (human, UniProt P20333 23-257).
T2 construct: Bought protein; also called recombinant human TNFR2 protein; not shown: His tag
T2 sequence (looked up): T1 sequence (looked up)
In words: SPR (Biacore T200), antibody captured on Protein A chip. The protocol:
(§2) Biacore was used to detect the specific binding of a test anti-TNFR2 antibody to human and cynomolgus monkey TNFR2 proteins. In this experiment, a Protein A chip was used, the time required for the chip to capture the diluted antibody was determined by manual run, so that the Rmax of the saturated binding to an antigen was 50 RU. […] The affinity of an antibody for an antigen was determined by using multi-cycle dynamics. In each cycle, an antibody was injected and then a TNFR2 protein at a gradient concentration was injected, so that the antigen and the antibody underwent binding and dissociation processes. After each cycle, the Protein A chip was regenerated with Glycine pH 1.5 (removing the protein on the chip). The affinity KD of an antibody and an antigen was fitted with BIAcore T200 analysis software.

In experiment [3] the target is T3, Cynomolgus TNFR2-His (Sino 90102-C08H) (cynomolgus monkey, UniProt A0A2K5VET2 132-366).
T3 construct: Bought protein; also called cynomolgus monkey TNFR2; recombinant cynomolgus monkey TNFR2 protein; not shown: His tag
T3 sequence: T1 sequence (looked up) with S16G, S36P, P117Q, N164H, E210A, S216G, M223V
The experiment is described as above. The procedure: as §2

Experiment [4] addresses T1, human TNFR2 (Novoprotein, Cat #C830). In words: competition ELISA, competitor human TNFα-Biotin; area under the OD curve. The protocol:
as §1

B1: 224-Hu1 (antibody, V domains shown)
VH: QVQLVQSGAEVKKPGASVKVSCKASGFNNKDIYMHWVRQAPGQGLEWIGRIDPATGNTKHDPKFQDRVTMTSDTSTNTVYMELSSLRSEDTAVYYCARSPYGDFGAMDYWGQGTLVTVSS
VL: DIQMTQSPSSLSASVGDRVTITCTASSSVSSNYLHWYQQKPGKAPKLWIYSTSNLPSGVPSRFSGSGSGTDFTLTISSLQPEDFATYYCHQYHRSPWTFGQGTKVEIK
notes: Humanized form of #224; also called VH8 + VL6
For B1, the IC50 in experiment [1] is 0.441 µg/mL. In experiment [2], this molecule registered a Kd of 6.57 nM, a koff of 0.000766 s⁻¹ and a kon of 117000 M⁻¹ s⁻¹. In experiment [3], this molecule registered a Kd of 3.95 nM, a koff of 0.000953 s⁻¹ and a kon of 241000 M⁻¹ s⁻¹. Also, the AUC in experiment [4] was determined as 7.12.

B2: 224-Hu7 (antibody, V domains shown)
VH: QVQLVQSGSELKKPGASVKVSCKASGFNNKDIYMHWVRQAPGQGLEWMGRIDPATGNTKHDPKFQDKAVLSSDTSVSTAYLQISSLKAEDTAVYYCARSPYGDFGAMDYWGQGTLVTVSS
VL: B1 VL with W48L
notes: Humanized form of #224; also called VH9 + VL10
In turn, B2 returned an IC50 in experiment [1] of 0.561 µg/mL. In experiment [2], this molecule came in with a Kd of 5.64 nM, a koff of 0.000815 s⁻¹ and a kon of 145000 M⁻¹ s⁻¹. In experiment [3], this molecule displayed a Kd of 3.12 nM, a koff of 0.000991 s⁻¹ and a kon of 318000 M⁻¹ s⁻¹. In addition, in experiment [4], the AUC came out at 7.44.

B3: 224-Hu4 (antibody, V domains shown)
VH: B2 VH
VL: B1 VL
notes: Humanized form of #224; also called VH9 + VL6
The molecule B3 showed an IC50 in experiment [1] of 0.458 µg/mL. In experiment [2], this molecule gave a Kd of 5.59 nM, a koff of 0.00072 s⁻¹ and a kon of 129000 M⁻¹ s⁻¹. In experiment [3], the Kd was 3.17 nM, the koff was determined as 0.000881 s⁻¹ and the kon came to 278000 M⁻¹ s⁻¹. In experiment [4], this molecule gave an AUC of 6.25.

B4: 224-Hu2 (antibody, V domains shown)
VH: B2 VH
VL: B1 VL with K43S, A44S
notes: Humanized form of #224; also called VH9 + VL7
In the case of B4, the IC50 in experiment [1] is 0.44 µg/mL. Moreover, in experiment [2], the Kd was found to be 4.31 nM, the koff was found to be 0.000686 s⁻¹ and the kon is 159000 M⁻¹ s⁻¹. In experiment [3], this molecule registered a Kd of 2.95 nM, a koff of 0.000835 s⁻¹ and a kon of 283000 M⁻¹ s⁻¹. Besides, the AUC in experiment [4] is 7.18.

B5: 224-Hu6 (antibody, V domains shown)
VH: B1 VH
VL: B1 VL with K43S, A44S
notes: Humanized form of #224; also called VH8 + VL7
The molecule B5 had an IC50 in experiment [1] of 0.439 µg/mL. For the same molecule, in experiment [2], the Kd stood at 4.08 nM, the koff turned out to be 0.000697 s⁻¹ and the kon is 171000 M⁻¹ s⁻¹. For the same molecule, in experiment [3], the Kd is 2.63 nM, the koff is 0.000848 s⁻¹ and the kon stood at 323000 M⁻¹ s⁻¹. In experiment [4], this molecule displayed an AUC of 6.46.

B6: 224-Hu3 (antibody, V domains shown)
VH: B2 VH
VL: B1 VL with W48L, P81A, F84A
notes: Humanized form of #224; also called VH9 + VL8
In experiment [1], B6 yielded an IC50 of 0.441 µg/mL. In experiment [2], this molecule returned a Kd of 4.1 nM, a koff of 0.000726 s⁻¹ and a kon of 177000 M⁻¹ s⁻¹. In experiment [3], this molecule gave a Kd of 2.97 nM, a koff of 0.000847 s⁻¹ and a kon of 285000 M⁻¹ s⁻¹. The molecule also returned an AUC in experiment [4] of 6.34.

B7: 224-Hu5 (antibody, V domains shown)
VH: B2 VH
VL: B1 VL with W48L, F72Y, T73S
notes: Humanized form of #224; also called VH9 + VL9
The molecule B7 showed an IC50 in experiment [1] of 0.528 µg/mL. In experiment [2], the Kd came to 4.28 nM, the koff amounted to 0.000682 s⁻¹ and the kon amounted to 159000 M⁻¹ s⁻¹. In experiment [3], binding was characterised by a dissociation constant (Kd) of 3.31 nM, the koff is 0.000828 s⁻¹ and the kon stood at 250000 M⁻¹ s⁻¹. Besides, the AUC in experiment [4] is 6.87.
